Experimental data published in article PMC6265447, “The bacterial Mre11–Rad50 homolog SbcCD cleaves opposing strands of DNA by two chemically distinct nuclease reactions” (Nucleic Acids Research, 2018).
pKd: −log10 of the molar value.

Tests used:
[1] = molecular target: SbcC;SbcD H84Q H84Q (Escherichia coli;Escherichia coli) (UniProt P13458+P0AG76); test: fluorescence anisotropy; details: 5 mM Mg2+, 1 mM Mn2+; 25 mM Tris pH 7.5, 50 mM KCl, 5 mM MgCl2, 1 mM MnCl2, 1 mM DTT, 1 mM ATP where stated; 5 nM DNA, 2-1000 nM SbcCD, 20 min at 25 C
[2] = tested on: T1, Nc1ncnc2c1ncn2[C@@H]1O[C@H](COP(=O)(O)OP(=O)(O)OP(=O)(O)O)[C@@H](O)[C@H]1O; test: NADH-coupled (PK/LDH) ATPase assay, Michaelis-Menten fit; format: biochemical, Escherichia coli; details: dsDNA present, 5 mM MgCl2, 1 mM MnCl2, 50 mM KCl, 25 mM Tris pH 7.5, 37°C
T1 construct: full-length SbcC (pET28) and SbcD with C-terminal His6 (pET21b), co-expressed in E. coli BL21(DE3); SbcC2-SbcD2 heterotetramer; printed 4M0V is the SbcD dimer structure only; with Nuclease SbcCD subunit D

| Substance | pKd [1] | Km [2] |
| --- | --- | --- |
| 60 bp DNA, GC-rich positions 15-29 | 6.88 |  |
| 60 bp DNA, AT-rich positions 15-29 | 7.35 |  |
| SbcCD (Escherichia coli K-12) |  | 46 ± 6 µM |
